Measured values published in publication PMC7337520, “NF90 modulates processing of a subset of human pri-miRNAs”.

Legend:
NF90 [1] = target: T1, NF90 (UniProt Q12906-2 1-702); experiment: EMSA; RNA EMSA as in ref 15; buffer, salt, pH and temperature not given; at least three replicates; details: protein: recombinant; label: radiolabel; hairpin
T1 sequence: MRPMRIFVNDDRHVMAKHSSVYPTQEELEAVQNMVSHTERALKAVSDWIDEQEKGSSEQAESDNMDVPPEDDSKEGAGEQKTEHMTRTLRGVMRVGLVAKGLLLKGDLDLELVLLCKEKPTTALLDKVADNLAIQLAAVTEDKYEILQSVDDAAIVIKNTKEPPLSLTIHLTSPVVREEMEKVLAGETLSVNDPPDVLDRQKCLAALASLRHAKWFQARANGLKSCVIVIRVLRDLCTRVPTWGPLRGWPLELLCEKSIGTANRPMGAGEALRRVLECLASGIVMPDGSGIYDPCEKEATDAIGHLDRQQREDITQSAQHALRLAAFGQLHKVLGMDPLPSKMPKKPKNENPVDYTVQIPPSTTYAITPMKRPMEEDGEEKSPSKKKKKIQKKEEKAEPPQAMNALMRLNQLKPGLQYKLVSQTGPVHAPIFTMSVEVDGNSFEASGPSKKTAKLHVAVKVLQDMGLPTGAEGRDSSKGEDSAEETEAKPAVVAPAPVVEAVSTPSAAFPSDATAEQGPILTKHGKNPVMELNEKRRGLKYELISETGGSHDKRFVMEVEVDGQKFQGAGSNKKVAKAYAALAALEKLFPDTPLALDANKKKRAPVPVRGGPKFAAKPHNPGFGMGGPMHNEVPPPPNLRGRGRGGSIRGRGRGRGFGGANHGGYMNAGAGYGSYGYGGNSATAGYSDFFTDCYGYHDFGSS

NF90 [2] = target: T1, NF90; experiment: EMSA; enhanced vs WT; band intensities only in figure; RNA EMSA as in ref 15; buffer, salt, pH and temperature not given; at least three replicates; details: protein: recombinant; label: radiolabel; hairpin

B1: pri-miR-3173 WT (structured_RNA)
RNA: CAUUGGAGGUCUAGGGCUUAUUUUCCAGAUAGAAUUGAGUCUUUGUUGGUCUUGGGCCAGCUUCCCUGCCCUGCCUGUUUUCUCCUUUGUGAUUUUAUGAGAACAAAGGAGGAAAUAGGCAGGCCAGGGAAACGAUCUCUCUCCCUCUCUUGUGCCGAGGAAGAACU
- binding result (NF90 [1]): binds

B2: pri-miR-186 WT (structured_RNA)
RNA: ACAGAACACCCAUCAUAUUCUUCCCAAACAUUUUUUCAUUGCUUGUAACUUUCCAAAGAAUUCUCCUUUUGGGCUUUCUGGUUUUAUUUUAAGCCCAAAGGUGAAUUUUUUGGGAAGUUUGAGCUAAAUUCCUUCAACCAAAAUAUACAAGUGAAGAAAAAAAAUUUGUAUUUAAACAUUUGCACAUUUACUUCUACCUGAAGCAUGUGAAUGUCAAC
- binding result (NF90 [1]): binds

B3: pri-miR-200a mutant #1 (structured_RNA)
RNA: CUGGCUGCUCACCGCUCCGGUUCUUCCCUGGGCUUCCACAGCAGCCCCUGCCUGCCUGGCGGGACCCCACGUCCCUCCCGGGCCCCUGUGAGCAUCUUACCGGACAGUGCUGGAUUUCCCAGCCUGUCUGGUAACGAUGUUCAAAGGUGACCCGCCGCUCGCCGGGGACACCACCGAGGCACAUC
- binding result (NF90 [2]): binds
